Measured values: patent US20120172295A1 (INDIANA UNIVERSITY RESEARCH AND TECHNOLOGY, published 2012)
Where two headings read alike, the source gives them in different places. No end group written: not given here.

Experiments:
Test in all cases: cell-based or functional assay
glucagon receptor [1] = molecular target: T1, glucagon receptor (UniProt P47871 26-477, limits assumed)
GLP-1 receptor [2] = molecular target: T2, GLP-1 receptor (UniProt P43220 24-463, limits assumed)
glucagon receptor [3] = molecular target: T1, glucagon receptor; remark: listed apart in the source
GLP-1 receptor [4] = molecular target: T2, GLP-1 receptor; remark: listed apart in the source
glucagon receptor [5] = molecular target: T1, glucagon receptor; remark: listed apart in the source
GLP-1 receptor [6] = molecular target: T2, GLP-1 receptor; remark: listed apart in the source
glucagon receptor [7] = molecular target: T1, glucagon receptor; remark: listed apart in the source
GLP-1 receptor [8] = molecular target: T2, GLP-1 receptor; remark: listed apart in the source
glucagon receptor [9] = molecular target: T1, glucagon receptor; remark: listed apart in the source
GLP-1 receptor [10] = molecular target: T2, GLP-1 receptor; remark: listed apart in the source

T1 sequence (P47871 26-477 limits assumed): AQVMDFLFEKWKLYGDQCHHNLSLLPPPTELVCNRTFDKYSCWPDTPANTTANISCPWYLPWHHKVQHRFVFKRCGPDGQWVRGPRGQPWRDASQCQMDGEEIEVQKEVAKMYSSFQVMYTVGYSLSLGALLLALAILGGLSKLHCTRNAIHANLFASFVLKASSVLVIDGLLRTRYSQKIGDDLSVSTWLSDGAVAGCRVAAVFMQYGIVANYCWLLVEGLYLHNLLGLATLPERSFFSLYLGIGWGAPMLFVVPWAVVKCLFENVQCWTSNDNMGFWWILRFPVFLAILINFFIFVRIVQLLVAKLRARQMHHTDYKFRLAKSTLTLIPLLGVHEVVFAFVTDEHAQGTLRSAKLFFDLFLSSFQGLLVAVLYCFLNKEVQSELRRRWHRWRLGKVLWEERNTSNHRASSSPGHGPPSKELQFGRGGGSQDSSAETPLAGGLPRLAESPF

Percent Potency Relative to Native Ligand (glucagon receptor [1]): 130% | Percent Potency Relative to Native Ligand (GLP-1 receptor [2]): 41.5% | Percent Potency Relative to Native Ligand (glucagon receptor [3]): 130% | Percent Potency Relative to Native Ligand (GLP-1 receptor [4]): 41.5% | EC50 (glucagon receptor [5]): 180 pM | EC50 (GLP-1 receptor [6]): 210 pM | EC50 (glucagon receptor [7]): 180 pM | EC50 (GLP-1 receptor [8]): 210 pM | EC50 (glucagon receptor [9]): 203 pM | EC50 (GLP-1 receptor [10]): 188 pM
Binder: HSQGTFTSDYSKYLDERRAKDFVQWLMNT-NH2 [E16 K20-glucagon-NH2]
